Source: the supplement of paper PMC9112550, “Optimization of the antimicrobial peptide Bac7 by deep mutational scanning” (BMC Biology, 2022)

System: Escherichia coli TOP10
Assay: shrunken log2 fold change of peptide-encoding DNA abundance (4.5 h post-induction vs induction); higher = less antimicrobial activity (less host growth inhibition)
Details: time post-induction: 4.5 h; library: site-saturation at positions 5, 18, 19, 20
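Further: peptides expressed intracellularly from a pBAD plasmid library in pooled LB shake-flask culture, induced with 0.3% L-arabinose, DNA abundance read by NGS, three biological replicates, DESeq2 with apeglm shrinkage.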

| Sequence | shrunken log2 fold change |
| --- | --- |
| RRIRNRPPRLPRPRPRPFQAPRP | -0.0439 |
| RRIRVRPPRLPRPRPRPDILPRP | 0.3 |
| RRIRLRPPRLPRPRPRPQANPRP | -0.289 |
| RRIRPRPPRLPRPRPRPDVLPRP | -0.709 |
| RRIRNRPPRLPRPRPRPRWMPRP | 0.0606 |
| RRIRERPPRLPRPRPRPNVDPRP | -0.0153 |
| RRIRPRPPRLPRPRPRPLFTPRP | -0.385 |
| RRIRCRPPRLPRPRPRPPKIPRP | 0.277 |
| RRIRKRPPRLPRPRPRPTCTPRP | 0.314 |
| RRIRPRPPRLPRPRPRPDNKPRP | -0.778 |
| RRIRERPPRLPRPRPRPFPGPRP | -0.0108 |
| RRIRQRPPRLPRPRPRPNVWPRP | 0.134 |
| RRIRHRPPRLPRPRPRPSRSPRP | -0.202 |
| RRIRARPPRLPRPRPRPMRDPRP | 1.04 |
| RRIRERPPRLPRPRPRPAYMPRP | -0.505 |
| RRIRWRPPRLPRPRPRPWSSPRP | -0.0663 |
| RRIRQRPPRLPRPRPRPMRTPRP | 0.661 |
| RRIRWRPPRLPRPRPRPQDDPRP | 0.0379 |
| RRIRTRPPRLPRPRPRPFCTPRP | -0.316 |
| RRIRMRPPRLPRPRPRPMQGPRP | 0.4 |
| RRIRFRPPRLPRPRPRPHIWPRP | -0.57 |
| RRIRFRPPRLPRPRPRPKQNPRP | 0.249 |
| RRIRKRPPRLPRPRPRPFFPPRP | 0.967 |
| RRIRYRPPRLPRPRPRPHLEPRP | -0.021 |
| RRIRVRPPRLPRPRPRPMYTPRP | -0.23 |

| Sequence | shrunken log2 fold change |
| --- | --- |
| RRIRWRPPRLPRPRPRPDVGPRP | 0.181 |
| RRIRMRPPRLPRPRPRPCFYPRP | -0.16 |
| RRIRDRPPRLPRPRPRPQCWPRP | 0.0162 |
| RRIRDRPPRLPRPRPRPETAPRP | 1.15 |
| RRIRTRPPRLPRPRPRPPRWPRP | 0.689 |
| RRIRARPPRLPRPRPRPYQEPRP | 0.0175 |
| RRIRIRPPRLPRPRPRPAVEPRP | 0.193 |
| RRIRQRPPRLPRPRPRPKRFPRP | -0.0339 |
| RRIRHRPPRLPRPRPRPAKFPRP | -0.139 |
| RRIRKRPPRLPRPRPRPWHPPRP | 0.143 |
| RRIRIRPPRLPRPRPRPGLFPRP | -0.0275 |
| RRIRDRPPRLPRPRPRPAVCPRP | 1.19 |
| RRIRVRPPRLPRPRPRPEAAPRP | 0.635 |
| RRIRRRPPRLPRPRPRPDDPPRP | -0.0033 |
| RRIRGRPPRLPRPRPRPPYDPRP | 0.0844 |
| RRIRFRPPRLPRPRPRPKRMPRP | 0.133 |
| RRIRTRPPRLPRPRPRPETLPRP | 0.0577 |
| RRIRARPPRLPRPRPRPSGLPRP | 0.0354 |
| RRIRMRPPRLPRPRPRPNKLPRP | -0.145 |
| RRIRARPPRLPRPRPRPGNFPRP | -0.226 |
| RRIRTRPPRLPRPRPRPIMFPRP | -0.937 |
| RRIRLRPPRLPRPRPRPSLRPRP | 0.00716 |
| RRIRTRPPRLPRPRPRPKPYPRP | -0.607 |
| RRIRFRPPRLPRPRPRPVHAPRP | 0.184 |
| RRIRGRPPRLPRPRPRPCNMPRP | -0.0796 |

| Sequence | shrunken log2 fold change |
| --- | --- |
| RRIRQRPPRLPRPRPRPKEHPRP | -0.117 |
| RRIRNRPPRLPRPRPRPHNHPRP | -0.739 |
| RRIRDRPPRLPRPRPRPKGIPRP | 0.0238 |
| RRIRKRPPRLPRPRPRPPENPRP | 1.15 |
| RRIRMRPPRLPRPRPRPEYAPRP | 0.0325 |
| RRIRRRPPRLPRPRPRPQYGPRP | -0.409 |
| RRIRYRPPRLPRPRPRPNHYPRP | -0.739 |
| RRIRVRPPRLPRPRPRPNAGPRP | 0.0323 |
| RRIRMRPPRLPRPRPRPYFAPRP | -0.296 |
| RRIRQRPPRLPRPRPRPLRPPRP | 0.699 |
| RRIRNRPPRLPRPRPRPGHPPRP | -0.0813 |
| RRIRRRPPRLPRPRPRPALAPRP | 0.516 |
| RRIRSRPPRLPRPRPRPGVQPRP | -0.0497 |
| RRIRNRPPRLPRPRPRPPKLPRP | 0.0789 |
| RRIRIRPPRLPRPRPRPDHDPRP | -0.0366 |
| RRIRQRPPRLPRPRPRPMIMPRP | 0.0999 |
| RRIRGRPPRLPRPRPRPRERPRP | 0.789 |
| RRIRGRPPRLPRPRPRPADHPRP | 0.625 |
| RRIRTRPPRLPRPRPRPVLSPRP | -0.328 |
| RRIRHRPPRLPRPRPRPWRPPRP | 0.29 |
| RRIRWRPPRLPRPRPRPSWPPRP | 0.0582 |
| RRIRRRPPRLPRPRPRPKTAPRP | 0.707 |
| RRIRMRPPRLPRPRPRPNCKPRP | 0.102 |
| RRIRSRPPRLPRPRPRPPKIPRP | -0.0117 |
| RRIRGRPPRLPRPRPRPHKMPRP | 0.0936 |

| Sequence | shrunken log2 fold change |
| --- | --- |
| RRIRLRPPRLPRPRPRPPMPPRP | 0.0906 |
| RRIRERPPRLPRPRPRPATLPRP | -0.274 |
| RRIRFRPPRLPRPRPRPMLMPRP | -0.0715 |
| RRIRTRPPRLPRPRPRPFHSPRP | -0.137 |
| RRIRQRPPRLPRPRPRPEPYPRP | 0.0808 |
| RRIRGRPPRLPRPRPRPKVGPRP | 0.721 |
| RRIRFRPPRLPRPRPRPHFRPRP | -0.634 |
| RRIRNRPPRLPRPRPRPFLMPRP | -0.0732 |
| RRIRCRPPRLPRPRPRPICMPRP | -0.491 |
| RRIRTRPPRLPRPRPRPVKDPRP | -0.0913 |
| RRIRPRPPRLPRPRPRPIEHPRP | -0.186 |
| RRIRDRPPRLPRPRPRPTAFPRP | 0.231 |
| RRIRQRPPRLPRPRPRPRGWPRP | 0.267 |
| RRIRIRPPRLPRPRPRPNNCPRP | -0.0753 |
| RRIRTRPPRLPRPRPRPTFFPRP | -0.11 |
| RRIRIRPPRLPRPRPRPEFGPRP | 0.129 |
| RRIRHRPPRLPRPRPRPQMLPRP | -0.0829 |
| RRIRVRPPRLPRPRPRPYNAPRP | -0.521 |
| RRIRLRPPRLPRPRPRPVVPPRP | 0.139 |
| RRIRWRPPRLPRPRPRPAKWPRP | 0.386 |
| RRIRRRPPRLPRPRPRPPEGPRP | 0.657 |
| RRIRYRPPRLPRPRPRPVDDPRP | -0.443 |
| RRIRSRPPRLPRPRPRPRHMPRP | -0.0166 |
| RRIRIRPPRLPRPRPRPCGYPRP | -0.01 |
| RRIRMRPPRLPRPRPRPNNHPRP | -0.178 |

| Sequence | shrunken log2 fold change |
| --- | --- |
| RRIRGRPPRLPRPRPRPDKLPRP | -0.0186 |
| RRIRDRPPRLPRPRPRPISCPRP | -0.0129 |
| RRIRQRPPRLPRPRPRPCRWPRP | -0.0062 |
| RRIRTRPPRLPRPRPRPEDQPRP | 0.112 |
| RRIRWRPPRLPRPRPRPEMIPRP | 0.0062 |
| RRIRWRPPRLPRPRPRPFWHPRP | -0.0195 |
| RRIRNRPPRLPRPRPRPWFHPRP | -0.179 |
| RRIRQRPPRLPRPRPRPPACPRP | 0.162 |
| RRIRVRPPRLPRPRPRPKNQPRP | -0.173 |
| RRIRPRPPRLPRPRPRPENAPRP | 0.0319 |
| RRIRYRPPRLPRPRPRPYNHPRP | -1.5 |
| RRIRKRPPRLPRPRPRPALCPRP | 0.146 |
| RRIRIRPPRLPRPRPRPDTGPRP | -0.375 |
| RRIRERPPRLPRPRPRPDSRPRP | -0.0302 |
| RRIRPRPPRLPRPRPRPNNRPRP | -0.349 |
| RRIRLRPPRLPRPRPRPSDGPRP | -0.162 |
| RRIRNRPPRLPRPRPRPDARPRP | 0.222 |
| RRIRMRPPRLPRPRPRPDALPRP | 0.438 |
| RRIRCRPPRLPRPRPRPSVYPRP | -0.697 |
| RRIRPRPPRLPRPRPRPKQHPRP | -0.0393 |
| RRIRQRPPRLPRPRPRPYCMPRP | -0.302 |
| RRIRNRPPRLPRPRPRPRFWPRP | 0.395 |
| RRIRMRPPRLPRPRPRPNYPPRP | -0.445 |
| RRIRCRPPRLPRPRPRPSGAPRP | 0.176 |
| RRIRIRPPRLPRPRPRPAANPRP | 0.0204 |

| Sequence | shrunken log2 fold change |
| --- | --- |
| RRIRERPPRLPRPRPRPEPKPRP | 0.0877 |
| RRIRERPPRLPRPRPRPVHDPRP | -0.687 |
| RRIRMRPPRLPRPRPRPPCPPRP | 0.564 |
| RRIRKRPPRLPRPRPRPDANPRP | -0.0872 |
| RRIRMRPPRLPRPRPRPMNKPRP | -0.0775 |
| RRIRLRPPRLPRPRPRPEGFPRP | 0.604 |
| RRIRGRPPRLPRPRPRPWCIPRP | -0.153 |
| RRIRTRPPRLPRPRPRPNGEPRP | -0.12 |
| RRIRPRPPRLPRPRPRPEGPPRP | -0.147 |
| RRIRSRPPRLPRPRPRPFMIPRP | -0.184 |
| RRIRCRPPRLPRPRPRPYRPPRP | -0.352 |
| RRIRVRPPRLPRPRPRPCCSPRP | -0.192 |
| RRIRGRPPRLPRPRPRPLGDPRP | 0.624 |
| RRIRGRPPRLPRPRPRPPKTPRP | 1.15 |
| RRIRCRPPRLPRPRPRPTYYPRP | -0.758 |
| RRIRERPPRLPRPRPRPAESPRP | -0.049 |
| RRIRFRPPRLPRPRPRPQLNPRP | -0.53 |
| RRIRSRPPRLPRPRPRPITSPRP | -0.0517 |
| RRIRYRPPRLPRPRPRPRVHPRP | -0.0416 |
| RRIRNRPPRLPRPRPRPNRLPRP | 0.0192 |
| RRIRDRPPRLPRPRPRPKLSPRP | 0.0504 |
| RRIRDRPPRLPRPRPRPRTSPRP | 0.353 |
| RRIRDRPPRLPRPRPRPISYPRP | -0.381 |
| RRIRMRPPRLPRPRPRPIPQPRP | 0.256 |
| RRIRVRPPRLPRPRPRPIEYPRP | -0.05 |
